Measured values: the Human Domainome abundance scans (Beltran et al. 2025)
± gives the uncertainty stated by the source.

B1: Death-inducer obliterator 1, residues 263 to 321; numbered along this chain, Q9BTC0 (parent)
chain: GYDPNALYCICRQPHNNRFMICCDRCEEWFHGDCVGISEARGRLLERNGEDYICPNCTI

Variants of: B1
Assay: abundance fitness (aPCA) (normalised: wild type 0, dead -1); higher = more abundant; growth selection in yeast, the domain comes from the species named
Conditions: Homo sapiens

Variant	abundance fitness
GYDPNALYCICLQPHNNRFMICCDRCEEWFHGDCVGISEARGRLLERNGEDYICPNCTI	-0.11 ± 0.056
GYDPNALYCICDQPHNNRFMICCDRCEEWFHGDCVGISEARGRLLERNGEDYICPNCTI	-0.101 ± 0.21
GYDPNALYCICVQPHNNRFMICCDRCEEWFHGDCVGISEARGRLLERNGEDYICPNCTI	-0.36 ± 0.063
GYDPNALYCICCQPHNNRFMICCDRCEEWFHGDCVGISEARGRLLERNGEDYICPNCTI	-0.216 ± 0.15
GYDPNALYCICYQPHNNRFMICCDRCEEWFHGDCVGISEARGRLLERNGEDYICPNCTI	-0.296 ± 0.098
GYDPNALYCICMQPHNNRFMICCDRCEEWFHGDCVGISEARGRLLERNGEDYICPNCTI	-0.305 ± 0.092
GYDPNALYCICTQPHNNRFMICCDRCEEWFHGDCVGISEARGRLLERNGEDYICPNCTI	-0.105 ± 0.066
GYDPNALYCICQQPHNNRFMICCDRCEEWFHGDCVGISEARGRLLERNGEDYICPNCTI	-0.186 ± 0.093
GYDPNALYCVCRQPHNNRFMICCDRCEEWFHGDCVGISEARGRLLERNGEDYICPNCTI	-0.116 ± 0.049
GYDPNALYCYCRQPHNNRFMICCDRCEEWFHGDCVGISEARGRLLERNGEDYICPNCTI	-0.449 ± 0.13
GYDPNALYCWCRQPHNNRFMICCDRCEEWFHGDCVGISEARGRLLERNGEDYICPNCTI	-0.169 ± 0.11
GYDPNALYCICRQDHNNRFMICCDRCEEWFHGDCVGISEARGRLLERNGEDYICPNCTI	-0.284 ± 0.079
GYDPNALYCICRQTHNNRFMICCDRCEEWFHGDCVGISEARGRLLERNGEDYICPNCTI	0.031 ± 0.064
GYDPNALYCICRQVHNNRFMICCDRCEEWFHGDCVGISEARGRLLERNGEDYICPNCTI	0.07 ± 0.05
GYDPNALYCICRQYHNNRFMICCDRCEEWFHGDCVGISEARGRLLERNGEDYICPNCTI	0.111 ± 0.087
GYDPNALYCICRQFHNNRFMICCDRCEEWFHGDCVGISEARGRLLERNGEDYICPNCTI	-0.084 ± 0.079
GYDPNALYCICRQAHNNRFMICCDRCEEWFHGDCVGISEARGRLLERNGEDYICPNCTI	0.006 ± 0.067
GYDPNALYCICRQQHNNRFMICCDRCEEWFHGDCVGISEARGRLLERNGEDYICPNCTI	0.079 ± 0.11
GYDPNALYCICRQGHNNRFMICCDRCEEWFHGDCVGISEARGRLLERNGEDYICPNCTI	0.018 ± 0.046
GYDPNALYCICRQSHNNRFMICCDRCEEWFHGDCVGISEARGRLLERNGEDYICPNCTI	0.035 ± 0.056
GYDPNALYCICRQHHNNRFMICCDRCEEWFHGDCVGISEARGRLLERNGEDYICPNCTI	-0.04 ± 0.085
GYDPNALYCICRQEHNNRFMICCDRCEEWFHGDCVGISEARGRLLERNGEDYICPNCTI	0.141 ± 0.059
GYDPNALYCICRQKHNNRFMICCDRCEEWFHGDCVGISEARGRLLERNGEDYICPNCTI	0.201 ± 0.055

Variant	abundance fitness
GYDPNALYCICRQMHNNRFMICCDRCEEWFHGDCVGISEARGRLLERNGEDYICPNCTI	0.004 ± 0.098
GYDPNALYCICRQWHNNRFMICCDRCEEWFHGDCVGISEARGRLLERNGEDYICPNCTI	-0.496 ± 0.17
GYDPNALYCICRQLHNNRFMICCDRCEEWFHGDCVGISEARGRLLERNGEDYICPNCTI	0.022 ± 0.054
GYDPNALYCICRQNHNNRFMICCDRCEEWFHGDCVGISEARGRLLERNGEDYICPNCTI	-0.003 ± 0.073
GYDPNALYCICRQIHNNRFMICCDRCEEWFHGDCVGISEARGRLLERNGEDYICPNCTI	-0.028 ± 0.078
GYDPNALYCICRQPNNNRFMICCDRCEEWFHGDCVGISEARGRLLERNGEDYICPNCTI	0.051 ± 0.092
GYDPNALYCICRQPVNNRFMICCDRCEEWFHGDCVGISEARGRLLERNGEDYICPNCTI	0.076 ± 0.05
GYDPNALYCICRQPKNNRFMICCDRCEEWFHGDCVGISEARGRLLERNGEDYICPNCTI	-0.121 ± 0.075
GYDPNALYCICRQPMNNRFMICCDRCEEWFHGDCVGISEARGRLLERNGEDYICPNCTI	0.138 ± 0.065
GYDPNALYCICRQPYNNRFMICCDRCEEWFHGDCVGISEARGRLLERNGEDYICPNCTI	-0.025 ± 0.093
GYDPNALYCICRQPLNNRFMICCDRCEEWFHGDCVGISEARGRLLERNGEDYICPNCTI	0.058 ± 0.049
GYDPNALYCICRQPCNNRFMICCDRCEEWFHGDCVGISEARGRLLERNGEDYICPNCTI	0.018 ± 0.09
GYDPNALYCICRQPENNRFMICCDRCEEWFHGDCVGISEARGRLLERNGEDYICPNCTI	0.029 ± 0.094
GYDPNALYCICRQPINNRFMICCDRCEEWFHGDCVGISEARGRLLERNGEDYICPNCTI	-0.039 ± 0.082
GYDPNALYCICRQPDNNRFMICCDRCEEWFHGDCVGISEARGRLLERNGEDYICPNCTI	0.073 ± 0.11
GYDPNALYCICRQPQNNRFMICCDRCEEWFHGDCVGISEARGRLLERNGEDYICPNCTI	-0.148 ± 0.11
GYDPNALYCICRQPSNNRFMICCDRCEEWFHGDCVGISEARGRLLERNGEDYICPNCTI	0.164 ± 0.053
GYDPNALYCICRQPPNNRFMICCDRCEEWFHGDCVGISEARGRLLERNGEDYICPNCTI	-0.126 ± 0.079
GYDPNALYCICRQPWNNRFMICCDRCEEWFHGDCVGISEARGRLLERNGEDYICPNCTI	-0.037 ± 0.063
GYDPNALYCICRQPGNNRFMICCDRCEEWFHGDCVGISEARGRLLERNGEDYICPNCTI	0.017 ± 0.055
GYDPNALYCICRQPANNRFMICCDRCEEWFHGDCVGISEARGRLLERNGEDYICPNCTI	-0.088 ± 0.073
GYDPNALYCICRQPFNNRFMICCDRCEEWFHGDCVGISEARGRLLERNGEDYICPNCTI	-0.414 ± 0.16
